Columns and labels:
OCT1 = test: Ratio of drug uptake in human OCT1 expressing HEK293 cells at 2.5 uM to drug uptake in empty vector transfected human HEK293 cells at 2.5 uM; format: ADME, cell-based
[1] = target: Solute carrier family 22 member 1 (Homo sapiens) (UniProt O15245); test: Substrate activity at human OCT1 expressed in HEK293 cells assessed as increase in compound uptake by measuring intrinsic clearance incubated for 2 mins by LC-MS/MS analysis
[2] = substrate: CC(CCc1ccc(O)cc1)NCCc1ccc(O)c(O)c1; test: (§1) Substrate activity at human OCT1 expressed in HEK293 cells assessed as increase in compound uptake by measuring Vmax incubated for 2 mins by LC-MS/MS analysis; format: cell-based
[3] = substrate: C[N+]1(C)[C@@H]2C[C@H](OC(=O)[C@H](CO)c3ccccc3)C[C@H]1[C@@H]1O[C@@H]12; test: as §1; format: cell-based
[4] = substrate: C[N+]1(C)CCN(c2ccccc2)CC1; test: as §1; format: cell-based
[5] = substrate: CCN(CC)C(=O)C1(c2ccccc2)CC1CN; test: as §1; format: cell-based
[6] = substrate: CC[N+](CC)(CC)Cc1ccccc1; test: as §1; format: cell-based
[7] = substrate: Nc1ccncc1N; test: as §1; format: cell-based
[8] = substrate: NCC(O)c1cccc(O)c1; test: as §1; format: cell-based
[9] = substrate: CC(NCCc1ccc(O)cc1)C(O)c1ccc(O)cc1; test: as §1; format: cell-based
[10] = substrate: CC(CCc1ccc(O)cc1)NCC(O)c1ccc(O)cc1; test: as §1; format: cell-based
[11] = substrate: NC(N)=Nc1nc(CSCC/C(N)=N/S(N)(=O)=O)cs1; test: as §1; format: cell-based
[12] = substrate: NCC(O)c1ccc(O)cc1; test: as §1; format: cell-based
[13] = substrate: CC(C)NC[C@H](O)COc1ccc(O)cc1; test: as §1; format: cell-based
[14] = substrate: CN[C@@H]1CCc2[nH]c3ccc(C(N)=O)cc3c2C1; test: as §1; format: cell-based
[15] = substrate: CC[N+](C)(C)c1cccc(O)c1; test: as §1; format: cell-based
[16] = substrate: CC(C)NCC(O)c1ccc(NS(C)(=O)=O)cc1; test: as §1; format: cell-based
[17] = substrate: CCN(CC)CCNC(=O)c1ccc(NS(C)(=O)=O)cc1; test: as §1; format: cell-based
[18] = substrate: C[N+]1(CCC(C(N)=O)(c2ccccc2)c2ccccc2)CCCCC1; test: as §1; format: cell-based
[19] = substrate: N=C(N)NC(=O)Cc1c(Cl)cccc1Cl; test: as §1; format: cell-based
[20] = substrate: CC[N+](CC)(CC(=O)Nc1c(C)cccc1C)Cc1ccccc1; test: as §1; format: cell-based
[21] = substrate: CNC[C@H](O)c1cccc(O)c1; test: as §1; format: cell-based
[22] = substrate: N=C(N)NCc1cccc(I)c1; test: as §1; format: cell-based
[23] = substrate: CC(CCc1ccc(O)cc1)NCCc1ccc(O)c(O)c1; test: (§2) Substrate activity at human OCT1 expressed in HEK293 cells assessed as increase in compound uptake by measuring Km incubated for 2 mins by LC-MS/MS analysis; format: cell-based
[24] = substrate: C[N+]1(C)[C@@H]2C[C@H](OC(=O)[C@H](CO)c3ccccc3)C[C@H]1[C@@H]1O[C@@H]12; test: as §2; format: cell-based
[25] = substrate: C[N+]1(C)CCN(c2ccccc2)CC1; test: as §2; format: cell-based
[26] = substrate: CCN(CC)C(=O)C1(c2ccccc2)CC1CN; test: as §2; format: cell-based
[27] = substrate: CC[N+](CC)(CC)Cc1ccccc1; test: as §2; format: cell-based
[28] = substrate: Nc1ccncc1N; test: as §2; format: cell-based
[29] = substrate: NCC(O)c1cccc(O)c1; test: as §2; format: cell-based
[30] = substrate: CC(NCCc1ccc(O)cc1)C(O)c1ccc(O)cc1; test: as §2; format: cell-based
[31] = substrate: CC(CCc1ccc(O)cc1)NCC(O)c1ccc(O)cc1; test: as §2; format: cell-based
[32] = substrate: NC(N)=Nc1nc(CSCC/C(N)=N/S(N)(=O)=O)cs1; test: as §2; format: cell-based
[33] = substrate: NCC(O)c1ccc(O)cc1; test: as §2; format: cell-based
[34] = substrate: CC(C)NC[C@H](O)COc1ccc(O)cc1; test: as §2; format: cell-based
[35] = substrate: CN[C@@H]1CCc2[nH]c3ccc(C(N)=O)cc3c2C1; test: as §2; format: cell-based
[36] = substrate: CC[N+](C)(C)c1cccc(O)c1; test: as §2; format: cell-based
[37] = substrate: CC(C)NCC(O)c1ccc(NS(C)(=O)=O)cc1; test: as §2; format: cell-based
[38] = substrate: CCN(CC)CCNC(=O)c1ccc(NS(C)(=O)=O)cc1; test: as §2; format: cell-based
[39] = substrate: C[N+]1(CCC(C(N)=O)(c2ccccc2)c2ccccc2)CCCCC1; test: as §2; format: cell-based
[40] = substrate: N=C(N)NC(=O)Cc1c(Cl)cccc1Cl; test: as §2; format: cell-based
[41] = substrate: CC[N+](CC)(CC(=O)Nc1c(C)cccc1C)Cc1ccccc1; test: as §2; format: cell-based
[42] = substrate: CNC[C@H](O)c1cccc(O)c1; test: as §2; format: cell-based
[43] = substrate: N=C(N)NCc1cccc(I)c1; test: as §2; format: cell-based

Sequence of Solute carrier family 22 member 1 (Homo sapiens) (O15245 whole entry, looked up): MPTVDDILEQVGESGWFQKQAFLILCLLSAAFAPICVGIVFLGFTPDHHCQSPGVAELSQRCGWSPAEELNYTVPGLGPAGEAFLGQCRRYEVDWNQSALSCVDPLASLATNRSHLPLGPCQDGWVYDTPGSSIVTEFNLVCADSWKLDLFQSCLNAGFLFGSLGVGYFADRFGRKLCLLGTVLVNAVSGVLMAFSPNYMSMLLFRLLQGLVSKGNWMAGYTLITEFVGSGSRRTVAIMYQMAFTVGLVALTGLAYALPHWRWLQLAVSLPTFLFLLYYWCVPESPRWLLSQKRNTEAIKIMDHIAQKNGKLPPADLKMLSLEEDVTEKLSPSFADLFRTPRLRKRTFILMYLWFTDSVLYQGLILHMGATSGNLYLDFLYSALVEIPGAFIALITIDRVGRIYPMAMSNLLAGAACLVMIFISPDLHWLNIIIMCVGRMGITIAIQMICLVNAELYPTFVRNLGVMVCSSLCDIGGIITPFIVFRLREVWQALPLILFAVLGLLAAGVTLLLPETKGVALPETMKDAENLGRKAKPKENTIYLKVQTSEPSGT

## CC[N+](CC)(CC(=O)Nc1c(C)cccc1C)Cc1ccccc1 [DENATONIUM]
OCT1
  uptake ratio at 2.5 µM: 21.6
[1]
  clearance: 71.4 mL/min/g

## N=C(N)NCc1cccc(I)c1 [IOBENGUANE]
OCT1
  uptake ratio at 2.5 µM: 10.1
[1]
  clearance: 3160 mL/min/g

## C[N+]1(CCC(C(N)=O)(c2ccccc2)c2ccccc2)CCCCC1
OCT1
  uptake ratio at 2.5 µM: 30.9
[1]
  clearance: 114 mL/min/g

## Nc1ccncc1N [AMIFAMPRIDINE]
OCT1
  uptake ratio at 2.5 µM: 6.8
[1]
  clearance: 18.8 mL/min/g

## NC(N)=Nc1nc(CSCC/C(N)=N/S(N)(=O)=O)cs1
[1]
  clearance: 87.4 mL/min/g

## CCN(CC)CCNC(=O)c1ccc(NS(C)(=O)=O)cc1 [SEMATILIDE]
OCT1
  uptake ratio at 2.5 µM: 3.5
[1]
  clearance: 3.3 mL/min/g

## NCC(O)c1ccc(O)cc1 (stereo unspecified)
[1]
  clearance: 9.1 mL/min/g

## CC(CCc1ccc(O)cc1)NCC(O)c1ccc(O)cc1 (stereo unspecified) [RACTOPAMINE]
OCT1
  uptake ratio at 2.5 µM: 7.1
[1]
  clearance: 111 mL/min/g

## CN[C@@H]1CCc2[nH]c3ccc(C(N)=O)cc3c2C1 [FROVATRIPTAN]
OCT1
  uptake ratio at 2.5 µM: 33.1
[1]
  clearance: 50.3 mL/min/g

## NCC(O)c1cccc(O)c1 (stereo unspecified) [NORFENEFRINE]
OCT1
  uptake ratio at 2.5 µM: 2.1
[1]
  clearance: 4.6 mL/min/g

## N=C(N)NC(=O)Cc1c(Cl)cccc1Cl [GUANFACINE]
OCT1
  uptake ratio at 2.5 µM: 4.3
[1]
  clearance: 138 mL/min/g

## C[N+]1(C)CCN(c2ccccc2)CC1 [DIMETHYLPHENYLPIPERAZINIUM]
OCT1
  uptake ratio at 2.5 µM: 38.9
[1]
  clearance: 47.2 mL/min/g

## CC[N+](CC)(CC)Cc1ccccc1
OCT1
  uptake ratio at 2.5 µM: 67.5
[1]
  clearance: 62.8 mL/min/g

## CC[N+](C)(C)c1cccc(O)c1 [EDROPHONIUM]
OCT1
  uptake ratio at 2.5 µM: 42.6
[1]
  clearance: 99.5 mL/min/g

## CC(CCc1ccc(O)cc1)NCCc1ccc(O)c(O)c1 (stereo unspecified) [DOBUTAMINE]
OCT1
  uptake ratio at 2.5 µM: 14.7
[1]
  clearance: 5.2 mL/min/g

## CC(NCCc1ccc(O)cc1)C(O)c1ccc(O)cc1 (stereo unspecified) [RITODRINE]
OCT1
  uptake ratio at 2.5 µM: 7.6
[1]
  clearance: 104 mL/min/g

## CC(C)NC[C@H](O)COc1ccc(O)cc1 [PRENALTEROL]
OCT1
  uptake ratio at 2.5 µM: 5.3
[1]
  clearance: 12.4 mL/min/g

## CNC[C@H](O)c1cccc(O)c1 [PHENYLEPHRINE]
OCT1
  uptake ratio at 2.5 µM: 10.6
[1]
  clearance: 17.3 mL/min/g

B1: POU domain, class 2, transcription factor 1 (Homo sapiens), P14859 (protein)
chain: MNNPSETSKPSMESGDGNTGTQTNGLDFQKQPVPVGGAISTAQAQAFLGHLHQVQLAGTSLQAAAQSLNVQSKSNEESGDSQQPSQPSQQPSVQAAIPQTQLMLAGGQITGLTLTPAQQQLLLQQAQAQAQLLAAAVQQHSASQQHSAAGATISASAATPMTQIPLSQPIQIAQDLQQLQQLQQQNLNLQQFVLVHPTTNLQPAQFIISQTPQGQQGLLQAQNLLTQLPQQSQANLLQSQPSITLTSQPATPTRTIAATPIQTLPQSQSTPKRIDTPSLEEPSDLEELEQFAKTFKQRRIKLGFTQGDVGLAMGKLYGNDFSQTTISRFEALNLSFKNMCKLKPLLEKWLNDAENLSSDSSLSSPSALNSPGIEGLSRRRKKRTSIETNIRVALEKSFLENQKPTSEEITMIADQLNMEKEVIRVWFCNRRQKEKRINPPSSGGTSSSPIKAIFPSPTSLVATTPSLVTSSAATTLTVSPVLPLTSAAVTNLSVTGTSDTTSNNTATVISTAPPASSAVTSPSLSPSPSASASTSEASSASETSTTQTTSTPLSSPLGTSQVMVTASGLQTAAAAALQGAAQLPANASLAAMAAAAGLNPSLMAPSQFAAGGALLSLNPGTLSGALSPALMSNSTLATIQALASGGSLPITSLDATGNLVFANAGGAPNIVTAPLFLNPQNLSLLTSNPVSLVSAAAASAGNSAPVASLHATSTSAESIQNSLFTVASASGAASTTTTASKAQ
[2]
  Vmax: 147 pmol/mg/min
[3]
  Vmax: 1210 pmol/mg/min
[4]
  Vmax: 2930 pmol/mg/min
[5]
  Vmax: 340 pmol/mg/min
[6]
  Vmax: 2420 pmol/mg/min
[7]
  Vmax: 9570 pmol/mg/min
[8]
  Vmax: 4550 pmol/mg/min
[9]
  Vmax: 173 pmol/mg/min
[10]
  Vmax: 234 pmol/mg/min
[11]
  Vmax: 3120 pmol/mg/min
[12]
  Vmax: 3540 pmol/mg/min
[13]
  Vmax: 165 pmol/mg/min
[14]
  Vmax: 3110 pmol/mg/min
[15]
  Vmax: 2630 pmol/mg/min
[16]
  Vmax: 2760 pmol/mg/min
[17]
  Vmax: 338 pmol/mg/min
[18]
  Vmax: 971 pmol/mg/min
[19]
  Vmax: 1180 pmol/mg/min
[20]
  Vmax: 902 pmol/mg/min
[21]
  Vmax: 3820 pmol/mg/min
[22]
  Vmax: 5030 pmol/mg/min
[23]
  Km: 28.4 µM
[24]
  Km: 23.4 µM
[25]
  Km: 62 µM
[26]
  Km: 2.26 µM
[27]
  Km: 38.6 µM
[28]
  Km: 508 µM
[29]
  Km: 994 µM
[30]
  Km: 1.67 µM
[31]
  Km: 2.1 µM
[32]
  Km: 35.7 µM
[33]
  Km: 389 µM
[34]
  Km: 13.3 µM
[35]
  Km: 61.9 µM
[36]
  Km: 26.4 µM
[37]
  Km: 196 µM
[38]
  Km: 102 µM
[39]
  Km: 8.6 µM
[40]
  Km: 8.6 µM
[41]
  Km: 12.6 µM
[42]
  Km: 221 µM
[43]
  Km: 15.9 µM

From ChEMBL document CHEMBL4828702, “Identification of Novel High-Affinity Substrates of OCT1 Using Machine Learning-Guided Virtual Screening and Experimental Validation” (J Med Chem, 2021)
